This passage reports amyloid nucleation score results from the supplement of paper PMC12042874.

± gives the uncertainty stated by the source.

The nature of the data set: amyloid nucleation score (Sup35N fusion, yeast selection) (log enrichment); library NNK3; higher = more nucleation; inactive = no reads after selection. The gist of the method:
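The nucleation score is the DiMSum log enrichment of output over input reads, centred on the mode score of non-aggregating sequences. Only sequences with 100 or more input reads were scored, using Illumina sequencing of input and output plasmid inserts. Psi-negative yeast expressing Sup35N fused to peptides of 20 random codons were induced 24 hours with 100 μM copper sulfate and grown 7 days at 30°C on medium lacking adenine and uracil.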
Take VHLQGITSITVGIWPHKHLD: the amyloid nucleation score entry was “inactive”.

Take VHSGQLVTMGMYKLLLSSLC: the amyloid nucleation score entry is “inactive”.

On to VICGYLYVYVYHGFVGSLLG, for which the amyloid nucleation score result was “inactive”.

In turn, VIGWKINGGYPERTS gave an amyloid nucleation score of 0.239 ± 0.42.

As to VIKALRMVCMGHWSYSVTLS, the amyloid nucleation score entry was “inactive”.

Turning to VINCIDMRLVYMLGETFFNY, the amyloid nucleation score was 2.03 ± 0.083.

Take VINRSLCPERFGKGAL: the amyloid nucleation score entry was “inactive”.

Regarding VIRPGQYVIWFSRVILSFLF, the amyloid nucleation score entry is “inactive”.

VIRSNYWHTLNWLQQNKSRG: the amyloid nucleation score entry is “inactive”.

In the case of VITMGMSLSSVSGLRDYLQE, the amyloid nucleation score was 1.36 ± 0.12.

VIVCNECLG had an amyloid nucleation score of 0.546 ± 0.42.

For the substance VKISMNYKTQLTWLLFAWIL, the amyloid nucleation score entry was “inactive”.

The substance VKKLSKVHDSCGMREVLGCH had an amyloid nucleation score of -0.36 ± 1.1.

Turning to VKLMASEHLSCIGRI, the amyloid nucleation score entry was “inactive”.

For the substance VKNTGLSSNHLEH, the amyloid nucleation score was 1.11 ± 0.13.

For the substance VKREWSAI, the amyloid nucleation score entry is “inactive”.

For the substance VKSISNNSQLSSELN, the amyloid nucleation score entry was “inactive”.

For the substance VKSRNENIDPGCWRLELAPF, the amyloid nucleation score result was “inactive”.

Turning to VKVCEVSMQNRIFTGHAHFS, the amyloid nucleation score result is “inactive”.

VKVLYSIAMGIGHGSIGKVC: the amyloid nucleation score was -0.835 ± 0.96.

Turning to VKYDDSWYDDWHIYNVYRCK, the amyloid nucleation score entry is “inactive”.

On to VKYSLALVSGNRARGYRRCG, for which the amyloid nucleation score result was “inactive”.

Turning to VLAMCVYSACMWFGNNAMLH, the amyloid nucleation score entry is “inactive”.

With VLGCVGLCYHRYVNALGGAE, the amyloid nucleation score result was “inactive”.

Take VLGILVDFDLIKV: the amyloid nucleation score result is “inactive”.

For VLGWGSIVMNDEGELSVGMV, the amyloid nucleation score result was “inactive”.

Turning to VLIRWRYEAYLSHCGSPCAS, the amyloid nucleation score entry was “inactive”.

Consider VLKLRVKVNQVVVDYVLESG, for which the amyloid nucleation score entry was “inactive”.

Consider VLLGAVYKQNLANQYYSNLY, for which the amyloid nucleation score entry was “inactive”.

Turning to VLLKRL, the amyloid nucleation score result was “inactive”.

As for VLLVCFLRTRKCSRLLAC, the amyloid nucleation score entry was “inactive”.

With VLPNYPSFNSSYICWYFWYL, the amyloid nucleation score entry was “inactive”.

With VLQHRLVFDFYKFCMSTMVH, the amyloid nucleation score entry was “inactive”.

In the case of VLQYECHVDMCRGRWSLGAI, the amyloid nucleation score entry was “inactive”.

In turn, VLRRSYYRVSRPELPIWSN yielded an amyloid nucleation score of -0.153 ± 1.1.

As to VLSGNFNTSDFLLMFLITSQ, the amyloid nucleation score entry is “inactive”.

VLTLLMKVEHTGVSHSVGRV showed an amyloid nucleation score of 1.02 ± 0.19.

As for VLTYTFRPSVSCSNKSKGSA, the amyloid nucleation score was found to be 0.107 ± 0.35.

As for VLVNPILLPMPLQ, the amyloid nucleation score entry is “inactive”.

As for VLVSVGLVLWACCLRLQ, the amyloid nucleation score result was “inactive”.

As to VLWAFNLMLVDWRIRFQNWA, the amyloid nucleation score entry is “inactive”.

The substance VLWPADFGCPARVQESGSSQ displayed an amyloid nucleation score of -0.387 ± 1.5.

Turning to VLYGRSGVVEANRC, the amyloid nucleation score result is “inactive”.

Take VLYVRNLMLYGNLCKALLAF: the amyloid nucleation score result was “inactive”.

On to VMAELVSVKVAQVIVR, for which the amyloid nucleation score entry was “inactive”.

For VMCSWLTGCYIQKNRFQGSL, the amyloid nucleation score is 0.724 ± 0.27.

Consider VMFLEDSVFV, for which the amyloid nucleation score result is “inactive”.

In the case of VMFMIAGNC, the amyloid nucleation score result is “inactive”.

With VMFRCN, the amyloid nucleation score result is “inactive”.

Substance VMIDRWRNASNWIMFISHYR returned an amyloid nucleation score of -0.611 ± 0.98.

Turning to VMKPNIEFGN, the amyloid nucleation score entry was “inactive”.

Take VMLNNCRGYLANCDSCSW: the amyloid nucleation score entry was “inactive”.

As for VMRIVATQRAGWTGTREPGM, the amyloid nucleation score entry is “inactive”.

Regarding VMSFVFNTSLWSMYIRIGSP, the amyloid nucleation score result is “inactive”.

Turning to VMSLTR, the amyloid nucleation score result is “inactive”.

For VMSSCKIRCNDTRTPAAHIC, the amyloid nucleation score entry was “inactive”.

VMTAGWYLFLLSGSEGYVVS returned an amyloid nucleation score of -0.325 ± 1.2.

VNCLLSRWCGRHA: the amyloid nucleation score entry was “inactive”.

VNCWLLAVFTASSATLHNTR: the amyloid nucleation score turned out to be 0.776 ± 0.14.

In the case of VNDVLGNEPFRVVGEEEIPG, the amyloid nucleation score result was “inactive”.

As to VNFLSGWEPVIVKYHRSA, the amyloid nucleation score entry is “inactive”.

For the substance VNFYADRASVHVHSVFHTQD, the amyloid nucleation score result was “inactive”.

On to VNGSV, for which the amyloid nucleation score entry was “inactive”.

VNITLLRCEGSGMFGRSSKL showed an amyloid nucleation score of 1.13 ± 0.11.

For VNLITCKQVSFRCQVSGILC, the amyloid nucleation score came out at 2.19 ± 0.092.

As to VNSDEPMHWRSSGNYRARIV, the amyloid nucleation score entry is “inactive”.

VNTFNFWCI showed an amyloid nucleation score of 2.7 ± 0.081.

VPCTWDLFYIGRSMWWFLTM: the amyloid nucleation score entry was “inactive”.

Regarding VPISHLFSLVLVRPRMTSRY, the amyloid nucleation score result is “inactive”.

Consider VPKKEKWRFDIVL, for which the amyloid nucleation score result is “inactive”.

Turning to VPPFPRMEAGGYVHVVAFSV, the amyloid nucleation score entry is “inactive”.

Substance VPPFTLTSVVYLSFCVCGGD came in with an amyloid nucleation score of 0.701 ± 0.13.

As to VQCRDVLGNDVFCVYHLGVE, the amyloid nucleation score entry is “inactive”.

With VQGLGGNWW, the amyloid nucleation score result was “inactive”.

As for VQGRYLRRVCMRMVPLRRTD, the amyloid nucleation score entry was “inactive”.

With VQISVNSVNLLKRWFIRAGT, the amyloid nucleation score result was “inactive”.

VQNNFGVSNAGNGLCWGCIC gave an amyloid nucleation score of 2.65 ± 0.051.

Substance VQRGSTALVFDVSTSIFMNI came in with an amyloid nucleation score of 1.57 ± 0.12.

For VQVLYVICLSSSMLYRLVVR, the amyloid nucleation score result was “inactive”.

Consider VRAGSLYHCVRNPISRGLAV, for which the amyloid nucleation score was -0.57 ± 1.8.

Consider VRFYVLSPKDFWAFLKILFR, for which the amyloid nucleation score result was “inactive”.

For VRHGCG, the amyloid nucleation score result was “inactive”.

On to VRIRGWFAGHGNFWFSL, for which the amyloid nucleation score entry was “inactive”.

With VRKKCLDPDGFLSRLGPAFD, the amyloid nucleation score is -0.429 ± 0.91.

With VRLFRVLWRIIPDGVSMKSV, the amyloid nucleation score entry is “inactive”.

In the case of VRLTTWLAYNLMVSSDTMFC, the amyloid nucleation score result is “inactive”.

Take VRNNVCRPVCYGWNGGYITV: the amyloid nucleation score entry is “inactive”.

With VRRSMATLFWCWDYTNLDCI, the amyloid nucleation score result was “inactive”.

For the substance VRSCAKLPSVHKYLAQARRL, the amyloid nucleation score entry was “inactive”.

Consider VRSFFYRSLYQCISRNPCCA, for which the amyloid nucleation score entry is “inactive”.

Take VRSNVKDRFT: the amyloid nucleation score entry is “inactive”.

For the substance VRSTTQHVHLICCNEYFRH, the amyloid nucleation score was determined as 2.82 ± 0.052.

With VRTDYWVGYVIFYHIVSRGL, the amyloid nucleation score result is “inactive”.

For VSDDLMDGSKNVLFARVEGD, the amyloid nucleation score result was “inactive”.

Regarding VSFCGTPFFYHWRHSNWLFK, the amyloid nucleation score entry was “inactive”.
